For this test, the system named is LOX-IMVI cells. The test can be described thus: Secreted factor rescue screen on LOX-IMVI (FIG. 23). The class given is cell-based. An excerpt:
FIG. 23 A-C.|Vemurafenib resistant and sensitive cell lines can be used to determine and anticipate paths to resistance in patients. LOX-IMVI cells were rescued by FGF1, FGF2, EGF, and HGF in the screen. A, LOX-IMVI VemR cells were re-sensitized to PLX4032 by FGFR inhibition. B, Dual resistant LOX-IMVI VemR/FGFRi (i.e., resistant to vemurafenib and FGFR inhibitor) cells were re-sensitized to PLX4032 by EGFR inhibition. C, Triple resistant LOX-IMVI VemR/FGFRi/Erlotinib cells were re-sensitized to PLX4032 by MET inhibition.

B1: EGF: secreted factor (protein, UniProt P01133 23-1207, looked up)
Pro-epidermal growth factor: PQHWSCPEGTLAGNGNSTCVGPAPFLIFSHGNSIFRIDTEGTNYEQLVVDAGVSVIMDFHYNEKRIYWVDLERQLLQRVFLNGSRQERVCNIEKNVSGMAINWINEEVIWSNQQEGIITVTDMKGNNSHILLSALKYPANVAVDPVERFIFWSSEVAGSLYRADLDGVGVKALLETSEKITAVSLDVLDKRLFWIQYNREGSNSLICSCDYDGGSVHISKHPTQHNLFAMSLFGDRIFYSTWKMKTIWIANKHTGKDMVRINLHSSFVPLGELKVVHPLAQPKAEDDTWEPEQKLCKLRKGNCSSTVCGQDLQSHLCMCAEGYALSRDRKYCEDVNECAFWNHGCTLGCKNTPGSYYCTCPVGFVLLPDGKRCHQLVSCPRNVSECSHDCVLTSEGPLCFCPEGSVLERDGKTCSGCSSPDNGGCSQLCVPLSPVSWECDCFPGYDLQLDEKSCAASGPQPFLLFANSQDIRHMHFDGTDYGTLLSQQMGMVYALDHDPVENKIYFAHTALKWIERANMDGSQRERLIEEGVDVPEGLAVDWIGRRFYWTDRGKSLIGRSDLNGKRSKIITKENISQPRGIAVHPMAKRLFWTDTGINPRIESSSLQGLGRLVIASSDLIWPSGITIDFLTDKLYWCDAKQSVIEMANLDGSKRRRLTQNDVGHPFAVAVFEDYVWFSDWAMPSVMRVNKRTGKDRVRLQGSMLKPSSLVVVHPLAKPGADPCLYQNGGCEHICKKRLGTAWCSCREGFMKASDGKTCLALDGHQLLAGGEVDLKNQVTPLDILSKTRVSEDNITESQHMLVAEIMVSDQDDCAPVGCSMYARCISEGEDATCQCLKGFAGDGKLCSDIDECEMGVPVCPPASSKCINTEGGYVCRCSEGYQGDGIHCLDIDECQLGEHSCGENASCTNTEGGYTCMCAGRLSEPGLICPDSTPPPHLREDDHHYSVRNSDSECPLSHDGYCLHDGVCMYIEALDKYACNCVVGYIGERCQYRDLKWWELRHAGHGQQQKVIVVAVCVVVLVMLLLLSLWGAHYYRTQKLLSKNPKNPYEESSRDVRSRRPADTEDGMSSCPQPWFVVIKEHQDLKNGGQPVAGEDGQAADGSMQPTSWRQEPQLCGMGTEQGCWIPVSSDKGSCPQVMERSFHMPSYGTQTLEGGVEKPHSLLSANPLWQQRALDPPHQMELTQ
modifications: Pro-epidermal growth factor
For B1, the “rescue in the secreted factor screen” value is “rescued”.
